Assay results reported in the supplement of paper PMC6757056.
± gives the standard deviation of the averaged measurements.

B1: library; a variant is named by its letters at N, in order (parent)
chain: GCUGUCACCGGUGCUUGGUACGUUAUAUUCAGCCGGUCUGAUGAGUCUNNNNNNAGACGAAACAGC

Legend:
(6R,S)-folinic acid [1] = variants of: B1; experiment: normalized RNA/DNA level without ligand (relative to sTRSVctl = 100) (log10 (% of sTRSVctl)); HEK293T overexpressing SLC46A1; higher = less ribozyme self-cleavage, higher mRNA level; details: without (6R,S)-folinic acid; ligand present: no
Procedure, shortened: (§1)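 Library plasmids encoding reporter-linked ribozyme switches (mCherry, or eGFP for some folinic acid experiments) were transfected into HEK293T at 4 µg per 6-well well. Ligand, when used, was added 1 h before transfection. Total RNA was extracted with EDTA 72 h later, then reverse-transcribed, amplified, barcoded and sequenced. RNA level was RNA reads over DNA reads, divided by a spiked-in non-cleaving control (or the top 25 sequences), ×100, log10; only sequences with ≥100 DNA reads were kept.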

(6R,S)-folinic acid [2] = variants of: B1; experiment: normalized RNA/DNA level with ligand (relative to sTRSVctl = 100) (log10 (% of sTRSVctl)); HEK293T overexpressing SLC46A1; ligand concentration (+) RNA-Seq: 6 mM; higher = less ribozyme self-cleavage, higher mRNA level; details: with (6R,S)-folinic acid; ligand present: yes
Procedure, shortened: as §1

| Variant | normalized RNA/DNA level without ligand (log10) ((6R,S)-folinic acid [1]) | normalized RNA/DNA level with ligand (log10) ((6R,S)-folinic acid [2]) |
| --- | --- | --- |
| AGAGUU | 2.002 ± 0.0079 | 2.011 ± 0.0021 |
| AGGACG | 1.962 ± 0.0089 | 2.032 ± 0.014 |
| GAACUU | 2.002 ± 0.013 | 1.98 ± 0.028 |
| GAACUC | 2.044 ± 0.0052 | 2.028 ± 0.012 |
| UUAGCC | 2.013 ± 0.0037 | 1.99 ± 0.026 |
| AACAUU | 2.03 ± 0.019 | 2.02 ± 0.022 |
| AGUUUC | 2.02 ± 0.024 | 2 ± 0.025 |
| CGCAUG | 2.01 ± 0.019 | 2.01 ± 0.022 |
| CACUCC | 2.044 ± 0.0027 | 2.02 ± 0.04 |
| CACUCU | 2.057 ± 0.015 | 2.043 ± 0.018 |
| GGAUUA | 2.014 ± 0.0063 | 2.0315 ± 0.0011 |
| UAUGCC | 1.995 ± 0.0025 | 1.99 ± 0.04 |
| CAUCCG | 2.083 ± 0.013 | 2.05 ± 0.028 |
| CUUUCU | 1.998 ± 0.005 | 1.99 ± 0.035 |
| CUGUUC | 2.049 ± 0.016 | 2.03 ± 0.024 |
| AAUUCG | 1.974 ± 0.012 | 2.03 ± 0.038 |
| UCUGAU | 1.973 ± 0.008 | 2 ± 0.046 |
| CCAUCC | 2.094 ± 0.013 | 2.06 ± 0.021 |
| CGCCAC | 2 ± 0.028 | 1.99 ± 0.042 |
| CCGGAU | 2.017 ± 0.0056 | 2.05 ± 0.059 |
| CUAUCC | 2.07 ± 0.03 | 2.04 ± 0.037 |
| ACUUUC | 2.041 ± 0.0054 | 2.05 ± 0.038 |
| ACUUUU | 2.037 ± 0.012 | 2 ± 0.038 |

| Variant | normalized RNA/DNA level without ligand (log10) ((6R,S)-folinic acid [1]) | normalized RNA/DNA level with ligand (log10) ((6R,S)-folinic acid [2]) |
| --- | --- | --- |
| CUUCAU | 2 ± 0.0049 | 1.99 ± 0.037 |
| CUUUAC | 2.019 ± 0.0086 | 2.01 ± 0.062 |
| GUUUCU | 1.965 ± 0.012 | 1.97 ± 0.068 |
| CUCAAA | 2 ± 0.016 | 1.97 ± 0.032 |
| CGGAAA | 1.9343 ± 0.0017 | 1.98 ± 0.045 |
| UAUAUU | 1.9864 ± 0.0015 | 2.01 ± 0.042 |
| CUAACU | 2.007 ± 0.0098 | 2 ± 0.035 |
| CAAACA | 1.979 ± 0.014 | 2 ± 0.044 |
| CUACGC | 2.025 ± 0.013 | 2.028 ± 0.0021 |
| CGUCGC | 2.06 ± 0.037 | 2 ± 0.092 |
| ACGGGC | 2.097 ± 0.0034 | 2.09 ± 0.031 |
| GCUGGC | 1.964 ± 0.017 | 1.916 ± 0.0083 |
| UCGUGU | 1.998 ± 0.0023 | 2.029 ± 0.0088 |
| AUUUGC | 2 ± 0.02 | 1.99 ± 0.026 |
| CUCGUG | 1.9917 ± 0.0012 | 2.013 ± 0.018 |
| GGGUUC | 2.027 ± 0.006 | 2.001 ± 0.0053 |
| CGGUGG | 1.93 ± 0.024 | 1.99 ± 0.026 |
| UUUAGG | 1.879 ± 0.012 | 2 ± 0.045 |
| UUCUCU | 2.06 ± 0.032 | 2.05 ± 0.054 |
| UUCUCA | 2.019 ± 0.003 | 2.04 ± 0.025 |
| UAGGCC | 2.047 ± 0.004 | 2.04 ± 0.044 |
| CGGUAU | 1.976 ± 0.0076 | 2.003 ± 0.013 |
| GUUUGA | 2.013 ± 0.0046 | 2.05 ± 0.034 |

| Variant | normalized RNA/DNA level without ligand (log10) ((6R,S)-folinic acid [1]) | normalized RNA/DNA level with ligand (log10) ((6R,S)-folinic acid [2]) |
| --- | --- | --- |
| UCGUCU | 2.02 ± 0.035 | 2.04 ± 0.09 |
| GGCGUA | 2.068 ± 0.004 | 2.04 ± 0.03 |
| CCGUCC | 2.06 ± 0.021 | 2.06 ± 0.039 |
| ACAAGA | 1.974 ± 0.0046 | 2.02 ± 0.031 |
| GCGUCU | 2.064 ± 0.0062 | 2.07 ± 0.034 |
| UGAUUU | 1.9907 ± 0.00083 | 2.02 ± 0.023 |
| CCUCGC | 2.08 ± 0.03 | 2.033 ± 0.017 |
| CCUCGG | 2.078 ± 0.0042 | 1.99 ± 0.012 |
| CAGUCU | 2.018 ± 0.0006 | 2.03 ± 0.038 |
| GCCUAC | 2.056 ± 0.0034 | 2.086 ± 0.0065 |
| GGUGUG | 1.98 ± 0.014 | 2.04 ± 0.034 |
| UUAUUA | 1.975 ± 0.0052 | 1.99 ± 0.02 |
| UCAAGU | 1.984 ± 0.0097 | 2.02 ± 0.045 |
| GAUAAG | 1.917 ± 0.0057 | 2 ± 0.033 |
| GUCCUU | 2.005 ± 0.01 | 2.008 ± 0.019 |
| GUCCUC | 2.024 ± 0.02 | 2.05 ± 0.048 |
| AGAACC | 2.02 ± 0.0077 | 2.01 ± 0.049 |
| GAUCCC | 2.06 ± 0.033 | 2.0517 ± 0.00022 |
| AACCGC | 2.04 ± 0.029 | 2.013 ± 0.019 |
| AUUUUU | 1.989 ± 0.017 | 2.01 ± 0.029 |
| GCUCGG | 2.034 ± 0.016 | 2.03 ± 0.026 |
| AGAUAU | 1.97 ± 0.011 | 2.04 ± 0.038 |
| AAGGCA | 2.007 ± 0.0039 | 2.04 ± 0.022 |

| Variant | normalized RNA/DNA level without ligand (log10) ((6R,S)-folinic acid [1]) | normalized RNA/DNA level with ligand (log10) ((6R,S)-folinic acid [2]) |
| --- | --- | --- |
| CGUCAG | 2.001 ± 0.013 | 2.057 ± 0.013 |
| CGUCAU | 2.01 ± 0.047 | 2 ± 0.021 |
| AGCCUU | 2.0374 ± 0.0006 | 2.02 ± 0.037 |
| CUCGCC | 2.1 ± 0.027 | 2.07 ± 0.054 |
| CUCACU | 2.041 ± 0.0055 | 1.99 ± 0.021 |
| UGGCUG | 2.066 ± 0.0012 | 2.09 ± 0.023 |
| CUGUGG | 1.96 ± 0.0026 | 2.059 ± 0.016 |
| CACGGC | 2.046 ± 0.014 | 2.03 ± 0.026 |
| UUUCGU | 1.98 ± 0.017 | 2.01 ± 0.012 |
| GGCAAC | 2.057 ± 0.0039 | 2.04 ± 0.0099 |
| CGACGG | 1.926 ± 0.014 | 1.973 ± 0.015 |
| AAGCGC | 2.025 ± 0.0081 | 2.03 ± 0.05 |
| GGGUGU | 2.025 ± 0.011 | 2.06 ± 0.049 |
| CGAGAC | 1.947 ± 0.015 | 1.974 ± 0.012 |
| ACUUGC | 2.036 ± 0.0029 | 2.03 ± 0.03 |
| GGAUCA | 2.02 ± 0.021 | 2.03 ± 0.05 |
| UGCACU | 2.017 ± 0.0058 | 2.04 ± 0.033 |
| CACGUG | 2.03 ± 0.022 | 2.05 ± 0.05 |
| UACGUU | 1.971 ± 0.0048 | 1.997 ± 0.014 |
| CAUGGU | 1.903 ± 0.019 | 1.95 ± 0.037 |
| GGAACG | 2 ± 0.027 | 2.03 ± 0.032 |
| CGUUCA | 2.024 ± 0.004 | 2.044 ± 0.017 |
| UGCCCA | 2.007 ± 0.0092 | 1.99 ± 0.018 |

| Variant | normalized RNA/DNA level without ligand (log10) ((6R,S)-folinic acid [1]) | normalized RNA/DNA level with ligand (log10) ((6R,S)-folinic acid [2]) |
| --- | --- | --- |
| AGACGU | 1.976 ± 0.0062 | 2.01 ± 0.026 |
| UCCGGU | 2.032 ± 0.019 | 2.02 ± 0.052 |
| CCCCAA | 2.0237 ± 0.0015 | 1.999 ± 0.0078 |
| UUGUCC | 2.008 ± 0.0064 | 2.045 ± 0.02 |
| AACGCG | 1.909 ± 0.012 | 2.03 ± 0.026 |
| UCUAGU | 1.984 ± 0.0028 | 2.04 ± 0.032 |
| AUUAAU | 1.9586 ± 0.0017 | 1.98 ± 0.033 |
| AUUAAC | 2.011 ± 0.0026 | 2.03 ± 0.033 |
| GGAGCU | 2.045 ± 0.017 | 2.04 ± 0.04 |
| UCCAGU | 1.94 ± 0.029 | 1.99 ± 0.029 |
| GCACGU | 1.99 ± 0.02 | 2.01 ± 0.023 |
| CAUCAU | 2.02 ± 0.052 | 2 ± 0.072 |
| CAUCAG | 1.97 ± 0.039 | 1.97 ± 0.021 |
| CAUCAC | 2.03 ± 0.0083 | 2 ± 0.071 |
| AUACAC | 2.01 ± 0.026 | 2.04 ± 0.039 |
| AGCGUA | 1.973 ± 0.0096 | 2 ± 0.028 |
| AACACC | 2.046 ± 0.015 | 2.05 ± 0.086 |
| AGGGAU | 1.949 ± 0.0057 | 1.98 ± 0.031 |
| AAGUGC | 1.984 ± 0.0023 | 2.01 ± 0.052 |
| CGGAGA | 1.997 ± 0.017 | 2.03 ± 0.042 |
| CAGCGA | 2.03 ± 0.0044 | 2.002 ± 0.0065 |
| GUAAAG | 1.94 ± 0.015 | 2 ± 0.027 |
| GUGGUA | 1.913 ± 0.0048 | 1.97 ± 0.019 |
